# Experimental data published in PMC3046868 (Nature, 2010).
# Molecular target: the molecule itself
# Assay: western blot
protein,measurement,value
"HA-tagged wild-type APCDD1 (natural protein, glycosylated) not shown",stoichiometry N,2
